Data on 27 molecules can be found in patent EP4269437A1.

The target in experiment [1] is PD-1 (UniProt Q15116). Nature of the experiment: ELISA, TG1 supernatant on coated PD-1, anti-c-myc HRP. For orientation: An ELISA detects its analyte on a solid surface through an enzyme-linked reagent.
Experiment [2] deals with PD-1 (UniProt Q15116). Nature of the experiment: blocking ELISA, clone supernatant, competitor PD-L1.hFc detected with anti-human Fc HRP.

PD-1, sequence (Q15116 25-170 limits assumed): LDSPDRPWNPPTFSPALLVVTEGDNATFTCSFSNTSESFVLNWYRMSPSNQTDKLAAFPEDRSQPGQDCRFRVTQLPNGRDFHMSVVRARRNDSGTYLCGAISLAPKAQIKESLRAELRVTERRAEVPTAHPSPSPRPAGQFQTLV

B1: NB171 (VHH)
VHH: QVQLVESGGGLVQAGGSLRLSCAASGRTFSSYAMGWFRQALGKEREWIAGVSMSGRTTYYAAPVKDRFTISRDNAKNTVTLQMNSLKPEDTAVYYCAAGRAQAEIPIMRAQEYDSWGQGTQVTVSS
Consider B1, for which the OD450, clone binding with PD-1 with PD-1 [1] amounted to 2.78 OD450. In the experiment with PD-1 [2], this molecule gave an OD450, PD-L1 binding with PD-1 of 0.715 OD450.

B2: NB153 (VHH)
VHH: DVQLQESGGGLVQAGGSLRVSCAASGRTFSSYGMGWFRQAPGKERELVAAITNTGLTYYADSVEGRFTISRDAAKNTVYLQMNSLEPEDTAVYYCNAGAPPPGGLGYDESDYWGQGTLVTVSS
B2: the OD450, clone binding with PD-1 in the experiment with PD-1 [1] worked out at 3.29 OD450. Moreover, in the experiment with PD-1 [2], the OD450, PD-L1 binding with PD-1 was 2.05 OD450.

B3: NB166 (VHH)
VHH: EVQVQESGGGLVQAGGSLTLSCAASGDTILISSIGWYRQAPGKERELVAAITNSGLTYYPDSVKGRFTISRDNAKNTVYLQMNNLKPEDTAVYYCNAGGPPPGGLGYDESDYWGQGTQVTVSS
The molecule B3 gave an OD450, clone binding with PD-1 with PD-1 [1] of 3.39 OD450. Further, in the experiment with PD-1 [2], the OD450, PD-L1 binding with PD-1 worked out at 2.29 OD450.

B4: NB195 (VHH)
VHH: EVQVVESGGGLVQAGGSLRLSCAASGDTILISAIGWYRQAPGKVRELVAAITNSGVTYYTDSVKGRFTISRDNAKNTVYLQMDSLKPEDTAVYYCNAGGPPPGGLGYDESDYWGPGTHVTVSS
B4 yielded an OD450, clone binding with PD-1 with PD-1 [1] of 3.13 OD450. Besides, in the experiment with PD-1 [2], the OD450, PD-L1 binding with PD-1 turned out to be 2.24 OD450.

B5: NB170 (VHH)
VHH: EVQLVESGGGLVQAGDSLRLSCAASGGTFGRLETGWFRQAPGKEREFVAAISWDGETSYADSVKGRFTISRDNAKNTMALQMNRLTPEDTAVYFCAARVILRAYKYWGQGTQVTVSS
B5 had an OD450, clone binding with PD-1 with PD-1 [1] of 2.7 OD450. Besides, the OD450, PD-L1 binding with PD-1 with PD-1 [2] came out at 2.02 OD450.

B6: NB159 (VHH)
VHH: QVQLVESGGGSVQAGDSLRISCEASGRTFMRYSMGWFRQASGKEREFVAAISWGGSSTYYADSVKGRFIISRDNTKNTVFLQMNSLKPEDTAVYYCAADTNPSGSWDRPTNEAEYDYWGQGTQVTVSS
For B6, the OD450, clone binding with PD-1 with PD-1 [1] was 1.84 OD450. In the experiment with PD-1 [2], this molecule gave an OD450, PD-L1 binding with PD-1 of 2.1 OD450.

B7: NB192 (VHH)
VHH: EVQLVESGGGLVQAGGSLRLSCAASGRTFNGYGMGWFRQAPGKEREFVAAISWRDSSKYYADSVRDRFTASRDNAKNTVYLQMNSLKPEDTAVYYCRPYSDYVTYDPYDYDAWGQGTQVTVSS
As for B7, in the experiment with PD-1 [1], the OD450, clone binding with PD-1 is 2.65 OD450. The molecule further displayed an OD450, PD-L1 binding with PD-1 with PD-1 [2] of 2.24 OD450.

B8: NB172 (VHH)
VHH: EVQLVESGGGLVQAGGSLRLSCTASGDTRLASAMGWYRQAPGKERELVAVITNSGLTHYADSVEGRFTISRDSAKNTVYLQMNSLKPEDTAVYYCNAGAPPPGGLGYDESDYWDQGTQVTVSS
B8 registered an OD450, clone binding with PD-1 with PD-1 [1] of 3.05 OD450. In the experiment with PD-1 [2], the OD450, PD-L1 binding with PD-1 stood at 2.17 OD450.

B9: NB733 (VHH)
VHH: QVQLVESGGGLVQPGASLRLSCAAAGFTFSSWAMTWVRQAPGKGLEWVSAISSGSGEMADYADSVKGRFAISRDNAKNTLYLQMNNLQPEDTAMYYCAKGGYLTYANLGPGTQVTVSS
B9: in the experiment with PD-1 [1], the OD450, clone binding with PD-1 turned out to be 1.03 OD450. In addition, in the experiment with PD-1 [2], the OD450, PD-L1 binding with PD-1 was found to be 2.47 OD450.

B10: NB223 (VHH)
VHH: EVQLVESGGGLVQAGGSLRLSCAASGRTFSSYGMGWFRQAPGKEREFVAAVNWSNSSAYYADSVKDRFTISSDNAKSTIYLQMNSLKPEDTAVYYCRPYSDYVTYDPDDYDYWGQGTQVTVSS
With B10, the OD450, clone binding with PD-1 with PD-1 [1] came to 1.3 OD450. The molecule further gave an OD450, PD-L1 binding with PD-1 in the experiment with PD-1 [2] of 2.25 OD450.

B11: NB173 (VHH)
VHH: QVQLQESGGGLVQAGGSLRLSCAASGRSFNSYAMGWFRQAPGKEREFVAAISQNGGTQGYAEAVKDRFTISRDNTNKVVALQMNSLKPEDTAAYYCAADGDASDISYAPPRDYEYDYWGQGTQVTVSS
Molecule B11 had an OD450, clone binding with PD-1 with PD-1 [1] of 2.97 OD450. Further, in the experiment with PD-1 [2], the OD450, PD-L1 binding with PD-1 worked out at 0.794 OD450.

B12: NB169 (VHH)
VHH: QVQLVESGGGLVPPGGSLRLSCAASGFTFSSYPMSWYRQAPGRKRDFVAMLTGAGGSTDYADSVKGRFTISRDNAKNTVYLQMNSLKPEDTAVYYCNAPAAMRDYGIDYWGKGTLVNVSS
Take B12: the OD450, clone binding with PD-1 in the experiment with PD-1 [1] amounted to 2.9 OD450. For the same molecule, the OD450, PD-L1 binding with PD-1 with PD-1 [2] amounted to 2.13 OD450.

B13: NB221 (VHH)
VHH: EVQLVESGGGLVQAGDSLRLSCAASGRTFSSVAMGWFRQAPGKEREFVAAISRSGGSAGYADSVKDRSTIARDNTKNTVYLQMNSLKPEDTAVYFCAASEYDFCSTHGCYDYWGQGTQVTISL
Molecule B13 yielded an OD450, clone binding with PD-1 in the experiment with PD-1 [1] of 2.62 OD450. This molecule also gave an OD450, PD-L1 binding with PD-1 with PD-1 [2] of 2.25 OD450.

B14: NB735 (VHH)
VHH: EVQVVESGGGLVQPGGSLTLSCAVSGFTLDDYSIGWFRQAPGRAREAVSCTSNRDGSTYYEDSVKGRFTISRDNAKNTVYLQMNSLKPEDTAVYRCSTDCSLYGSTYSPDYWGQGTQVIVSS
Turning to B14, the OD450, clone binding with PD-1 with PD-1 [1] turned out to be 1.81 OD450. Also, in the experiment with PD-1 [2], the OD450, PD-L1 binding with PD-1 is 2.44 OD450.

B15: NB222 (VHH)
VHH: QVQLVESGGGLVQAGGSLRLSCAASGGTFSNFNVGWFRQAPGKEREFVAASNWSAGTTHYSDSVKGRFTISRDNAANTAYLQMNSLRPDDTAVYYCNRVIRGTTYPDVYYGMDYWGKGTLVTVSS
B15: the OD450, clone binding with PD-1 with PD-1 [1] was found to be 3.13 OD450. In addition, the OD450, PD-L1 binding with PD-1 with PD-1 [2] amounted to 2.23 OD450.

B16: NB755 (VHH)
VHH: QVQLVESGGGLVQAGGSLRLSCVDSGRTFSSYGMGWFRQAPGKEREFVAAVNWRNTTAYYADSAKDRFTISSDNAKNTVYLQMASLKPEDTGVYYCRPYSDYVSYDPTEYDSWGQGTQVTVSS
On to B16, for which the OD450, clone binding with PD-1 with PD-1 [1] is 1.7 OD450. The molecule also showed an OD450, PD-L1 binding with PD-1 with PD-1 [2] of 2.2 OD450.

B17: NB754 (VHH)
VHH: QLQLVESGGGLVQPGGSLRLSCAVSGFTFSSDAMNWYRQAPGKERELVASITIDGGSTNYADSVKGRFTISRDNAKNTLYLQMNSLKPEDTAVYYCNADRGIIIYGKTYWGQGTQVTVSS
In the experiment with PD-1 [1], B17 gave an OD450, clone binding with PD-1 of 2.04 OD450. This molecule had an OD450, PD-L1 binding with PD-1 with PD-1 [2] of 2.37 OD450.

B18: NB148 (VHH)
VHH: QVQLVESGGGLVQAGGSLRLSCAASGGTFSGSELGWFRQAPGKEREFVAGISRNGGTTGYSDSVKDRFTIARDNAKNTVYLQMNSLKPEDTAVYYCAAGLRAYYGDSYVDTMTENYNYWGQGTQVTVSS
In the case of B18, in the experiment with PD-1 [1], the OD450, clone binding with PD-1 was determined as 2.84 OD450. This molecule yielded an OD450, PD-L1 binding with PD-1 with PD-1 [2] of 2.56 OD450.

B19: NB532 (VHH)
VHH: QVQLVETGGGLVQAGGSLRLSCAASGRTFSSYNMGWFRQAPGKEREFVAAISWSGGSQGYAAAVKDRFTISRDNAKNTVYLQMNSLKAEDTAVYYCAAKYHSGSYYYTSIRPEEYDYWGQGTQVTVSS
In turn, B19 had an OD450, clone binding with PD-1 in the experiment with PD-1 [1] of 1.36 OD450. Besides, the OD450, PD-L1 binding with PD-1 in the experiment with PD-1 [2] was found to be 2.19 OD450.

B20: NB164 (VHH)
VHH: QVQLVESGGGLLQAGDSLRLSCIASGRTFSSYAMGWFRQAPGKEREFVAGINGNGRSQYYAEVVKDRFFISRDNAKNTVYLQMNSLKPEDTAVYYCAAEGHLGVPTVRSDEYDYWGQGTQVTVSS
With B20, the OD450, clone binding with PD-1 with PD-1 [1] turned out to be 2.84 OD450. Besides, the OD450, PD-L1 binding with PD-1 in the experiment with PD-1 [2] is 2 OD450.

B21: NB548 (VHH)
VHH: QLQLVESGGGLVQPGGSLRLSCTANGFSVGDYSMSWHRQPPGKEREVVATTARDSGSTFYAASVKGRFTISRDNAKNTVYLQMNSLKPEDTGVYYCRVNSQDYWGQGTQVTVSS
As to B21, in the experiment with PD-1 [1], the OD450, clone binding with PD-1 is 2.13 OD450. Further, in the experiment with PD-1 [2], the OD450, PD-L1 binding with PD-1 was found to be 2.43 OD450.

B22: NB189 (VHH)
VHH: QVKLEESGGGLVQAGGSLRLSCTASGGTFNSYAMGWFRQAPGKERESVAAINLSRGNTYYADSVKGRFTISRDNAKNTVYLQMNSLKPEDTAVYHCGVDRRQYGLGIPPLADHWGQGTQVTVSS
Molecule B22 returned an OD450, clone binding with PD-1 with PD-1 [1] of 2.97 OD450. Further, the OD450, PD-L1 binding with PD-1 with PD-1 [2] was found to be 2.34 OD450.

B23: NB154 (VHH)
VHH: QVQLVESGGGLVQAGDSLRLSCAASGGTFSGYGMGWFRQAPGKEREFVAGISRHGGSTGYSSSVKDRFTISRDNAKNTVDLQMNSLKPEDTAVYHCAAALRPDYGDSYVYTSTSNYEYWGQGTQVTVSS
As for B23, the OD450, clone binding with PD-1 with PD-1 [1] amounted to 2.61 OD450. The OD450, PD-L1 binding with PD-1 in the experiment with PD-1 [2] came out at 2.28 OD450.

B24: NB734 (VHH)
VHH: QVQLVETGGGLVQAGGSLRLSCAASGDTILFSAVGWHRQAPGKERELVAAITNSGVTYYADSVKGRFSISRDNAKNTVYLQMNSLKPEDTAVYYCNAGAPPPGEFGYDESDYWGQGTQVTVSS
In turn, B24 gave an OD450, clone binding with PD-1 with PD-1 [1] of 2.17 OD450. In the experiment with PD-1 [2], this molecule came in with an OD450, PD-L1 binding with PD-1 of 1.42 OD450.

B25: NB196 (VHH)
VHH: QVQLVETGGGLVQAGGSLRLSCTASGDTNLFSAMGWHRQAPGKERELVAAITNSGMTYYADVVKGRFTLSRDNAKNTVYLQMNSLKPEDTAVYYCNAGAPPPGGFGYDESDYWGQGTQVTVSS
For B25, the OD450, clone binding with PD-1 with PD-1 [1] was determined as 3.39 OD450. Moreover, in the experiment with PD-1 [2], the OD450, PD-L1 binding with PD-1 stood at 2.49 OD450.

B26: NB139 (VHH)
VHH: EVQVVESGGGLVQTGGSLRLSCAASGDTALISAMGWYRQAPGKERELVAALTNTGITYYADSVKGRFTISRDNAKNTVYLQMNSLKPEDTAVYYCNAGAPPPGGLGYDESDYWGQGTQVTVSS
On to B26, for which the OD450, clone binding with PD-1 with PD-1 [1] amounted to 3.12 OD450. The OD450, PD-L1 binding with PD-1 with PD-1 [2] was 2.39 OD450.

B27: NB147 (VHH)
VHH: EVQVVESGGGVVQAGDSLRLSCVASGRTFSSVAMGWFRQAPGKEREFVAAISRSGGSAGYSDSVKDRSTISRDNAKNTVYLQMNSLKPEDTAVYFCAASELDFCSTLGCYDYWGQGIQVTFSS
Molecule B27 gave an OD450, clone binding with PD-1 with PD-1 [1] of 2.63 OD450. In the experiment with PD-1 [2], this molecule returned an OD450, PD-L1 binding with PD-1 of 0.994 OD450.
